In the NTF2 design screens of Basanta et al. (2020) one finds protease stability score data, which are given here for 47 sequences.

The data set can be described thus: protease stability score; higher = more stable; yeast display proteolysis, trypsin and chymotrypsin.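 Further: relative to predicted unfolded state with 0 unfolded-like and 1 meaning tenfold more protease.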
In the case of “SEEEKEDWEWMEIFYDALHTGDEKLIRDNADPNVKFRQGDYHSVGREEYIRKIDELRRRLGITKIRLEIDHVEVINGRSNVDTTIHVNGREIRSTLHVQVVNGRIKEIEIHLR”, the protease stability score turned out to be 1.04. To “SEEEKEIKEILERLIRSLLTGDEQELAKMADPNVRFNFQVGNKKYTLHGREHLRRHITFVFEYLGFDHITIQDSHYQGDKMTVHVELRVNGRRHEIREHWLVVDGRIKEVHVEIH” belongs 2.32; to “SEEEKELEEALKIQEEFWRTGDEHSLRELADPHARVHIDGRDLHGREFWSMLSNQLRIEHIEVKSVELVDGRLEADVHVTGRYNGRDVKTRMRLEIVKINGVWYLESTEIN”, 0.407; to “SEEEKELKTLVEELWHAWETGDEDFIHKYMDPHARLHIGDKDHHGREEIRESLRQHREHLRIEHVHRHHVKLVDGRIETHGHILGHIGDKRFETEMIIIIIVINGRIRSMKFDYR”, 1.03. To “SEEEKELREIMKVFKDAFLTGNEDLLRQLMDPHVRFHIGDKKNHGWEALHEYLLRIDHLDDLHSHLTEVHIQGDKVKIDGHLHMVERYGDFRFEREIRVHIVIEKINGRWIIEEVHFI” belongs 1.35; to “SEEEKELRFVYDLLWHLLKTGDEEITRELADPRVRIDIDGKEWHGRDELARLFDRLHRELGYTVHRTRHHRHDFINGQWHEDGETKGVIGDKEFETHVKIIIIVINGRLKEVIFHYH”, 1.16; to “SEEEKEMEDFLREFEKNLRTGDEEQIRRLADPHVRMEVNGVEHIGRKHVSRFWYHLVRRADHIHIEVEDMHLVGEKMELIGILRLRVNGRDLTHHHRLIVDKIDGRWFLRESRIH”, 1.73. To “SEEEKEMHHIARLFFELWLTGDEETHQRLLDPDAKHSFNGVILHGRDEMIRYWRQFLEEIRLRSIEIRRITSVGDKVHVDSHVDGEVNGRRIVTREYIELEVVDGRWKRVKLHIK” belongs 1.38; to “SEEEKESEDSMRILEHYFHTGNEESLLKLADPHVRSEINGKIHHGMDLHNEIWKHFVQQFKGARPTSLNFKDVEIQGNKAEFHIELVLTIGNYSIHLEMHIFNEKVDGRWLIRSTYIR”, 1.08; to “SEEEKETEHVLRLFLEIFHTGDWKTLHELFDPHVRLNVGDKHWIGRENVVEQIRHFLERFKNARFHIHRIHIVGDFNDVRTEITINGRTHDTRLWLQVIDGRIESMEIKMN”, 2.44. Consider “SEEEKETRKNLHEFLESIITGDEDHLVNMMDPHARIEVGDWELVGRHKFHEFASKVKNLKLHIRNTEVYGDKVHIDSEINFNGQRRDMVVHAEKINGKWILKHTRYQ”, for which the protease stability score was determined as 1.17.

For the sequence “SEEEKEVKEHLKIIHDVIRTGNEHDIKELMDPNMLLVFNGQKHIGRDHWEELLKKLGADHVHLHIRSFTIINGQARLETEVEWRAENRTIRRETEIVTDKINGRWIIHTIIFR”, the protease stability score is 1.5.

Take “SEEEKEVQEYLERSIKDIRTGDEDELRRQLDPNYKLDVNGQKHIGMELWLKILSREVKEIRIDHVERHIEVINGRIDVKGELILNFNGREFRHHFEIHATKFNGRWVVDSMRVE”: the protease stability score turned out to be 1.15. To “SEEEKEYEHWMRLYLHWRLTGDEEAEKRNADPNTRVEFNGKELHGMEVVSEFIIKLRNEMRFEFLEIDDMRVIDGVSHFDVTVDGVIDGKRVRLTLHIILIVINGKIHHIQEEWK” belongs 1.43. To “SEEEKFAERFIRLFMEALETGDERVLEELLDPNVRVEVNGREYHGRDVFTRLVREWRIDHLDTHTHRIDSQGDKVNADTRVRFHHKVGDKVHDTEMHVILHSEKFNGRWHMTEIIIR” belongs 1.34; to “SEEEKHAHEMVRIFLHILKTGDWRTLEKLLDPDVRMSLDINGREHHQVGREEVLKAFIRFLDEWRMDDLHLHDVTIQGDKAYLETEVHITFNGQRHHTHLEIEIYVINGKIKSIRLTIR”, 2.36.

“SEEEKHFEDALERWIRTTDTGDETKLIELMDPHVKVDINGQEFHGWKIVFRFMHHLIRRIDHIIIEVKHLRVYDGRVELDGIIRVRFDGRQMEYNSRFIALKFNGVWLLHSMHFH”: the protease stability score came to 1.87. For “SEEEKHIIELFEIWLEAIRTGDENLLLKLADPHYRVIIDVGNKHIHRHGWKEFMEWLRHFTREMRIRHLTLRDYRAVNGVFHADTESVEEIGEFELRTRMHIVLVIINGVFHSVRHKIE”, the protease stability score is 1.23. To “SEEEKHLEHMARMMVEALMTGDEKLLNHLLDPNVRVEHSINGVEITDHGWHLYVKWVRDLGIDHIYFKDMHHQGNKTHLNIEIEINGKHIETRLLLVIVNGRIHIIKHEIK” belongs 2.08.

As to “SEEEKHLRELSEHFIKLFLTGNEEELVNNADPHVQLHIDINGKKYHYHGREEFRKWAEERSEKIKNAKIILDHVEIQGEKLIIDTTWHFDGRNFRSKIKIKVFDGVLKEIHIEIR”, the protease stability score worked out at 2.1.

As to “SEEEKHMHKMHELRNKRTKTGDEHWFEKLADPHYRVEIGDKELIGWEYLVRVRREFGIDHLETVHIDSTEIQGEKVIEHVTIHGEFDGVRNDLKVELIVIKFNGRWVMHSTKVK”, the protease stability score stood at 0.761.

For the sequence “SEEEKHSHKAVEIITELLKTGDWHEILKNADPTTKSDFNGVELHGWEALQSILKFMGIDHVELKSIDVFNGRLTVHRNMHINGREHHLIIIALKVNGKWVLESMEVH”, the protease stability score was determined as 1.84. To “SEEEKHTREMSEMLLRTWETGDEEEYEHLADPHVRIDFNGKHYHGREEAVKLLRWLIEELGADHRTIHREEVQGEKVRLFTRVNVNGRDLRLIIRFVVINGRLTIMKIEIHTE” belongs 1.26. To “SEEEKHVHRFLSEWTRSLKTGDEQRIVRLLDPTARLFFEGREYHGMETIAHQIVHDIRHHGFTLEVEIQDFHVQGDKAEHDGILIVKVDGKEIHRKLILVVTKIDGRWFLSEVIIK” belongs 0.923.

Sequence “SEEEKHVIKMAEILLKSVLTGDWDKIKKMLDPNVKFHFHAENRHEEDHGMERVMDWMIKVRERFDVLEIEVTNSDVYGDKAVVDGRLINIIGDKRIETRVIIIIVVVDGRIHSIYFVIK” came in with a protease stability score of 2.54. In the case of “SEEEKHVTSMMELWIHYIITGDEEFFLKLADPHTRFEIGDYENHGRDAVKWHRDHLGLDNVHSRIHIKELRAVGDKVHSHTHLVIHIGDKTIRMDTKVHIVYINGRITSIIVEIS”, the protease stability score was 1.31. Take “SEEEKHWEDLVEHLHQIWLTGDEDTLRHRLDPNMRMDIDGKELHGRESIIEEIRRLGVDHVETKRKHSQGDKAHFDLIIRIDGKEHKMEIVIVVVNGKLKEVVLRRK”: the protease stability score came out at 1.1.

“SEEEKHWRKVINLLRRWHLTGDEHNLLELFDPNYRLHQGDKEIHGMELYIEIFERELKKVPNLKINFDSKHIEVQGEKARAETELDVNIDGRRIEFETRLYSIKFNGKWFVHSMEVK”: the protease stability score amounted to 0.553. To “SEEEKIAEDLAREIEEDWLTGNEEYIMHLADPNVKSHINIDGKRIDTHGMEELTHWLSRYPNVRIEPKRMDVQGEKITLDFELNIGDKRVRVILYHIIINGRIKEIRIIIHHV” belongs 0.995; to “SEEEKIFEMAIKLMRHTLQTGDESTLHRLLDPHVRVVIGDKTYVGREATEFLLTRIDHIHDVEIHEVELINGRVNMHGIVDGTIGDKRVHVESNWVASKYDGRWHLKSISFH”, 1.29. To “SEEEKILDDILKLFLDDVRTGNEDSLHRLADPHVRQDYNGVELHGMELVVHWLVELRVEDWRHKDSDSAENRVHLNGIVDGNINGKKQRREIILVIRKVDGRWFLEHNIVI” belongs 1.23; to “SEEEKILDKLMELLSRLVHTGDEKEWADLMDPDTKLHVGDKTYIGMEKVTEFLHEMRVHHLELHDKRVIGDKARVHTNLRGVIDGRDVNLETHMIITKINGKWVIHSVEVR”, 1.02; to “SEEEKILEDALRLLIEVDETGNWKLLQEMIDPNVLVDINGRKYHGREQWIRLLHEFIRDAGVQRIHSDIEHIEIQGEKIIMHGMLDINGQRRRTEVIAHKYDGRWFVEEIRIR”, 2.11. To “SEEEKILKEIAHLLIRSLITGDWKILRDLMDPHTKIHILQGDKVHNFHGWKAMTETLKQKLDRIDHVNFELRHMEVFDGRVHIEGVLHLNFDGQERFTEVRIIVVVIDGKLKEFELRIH” belongs 2.16.

The sequence “SEEEKIMEELLRRIVNALQTGDEDFWSHLADPDTRFVLIQGEWSDEVHGRENALKFMEELKKRVPGMRIRVKDSRVQGEKLHVDGEIIYNGRSFDVEIRLRVVDGRIHEFQIIIR” showed a protease stability score of 2.06.

The sequence “SEEEKIVDERIKILLESWDTGDWDSFIKMLDPNALSIVGEFVMHGRETVVDALDKLLKKLGVKMETHDTEHFEIYGNKARLETTIHLRVGDFHFKRRTRVHMEKVDGQWFITIYESG” gave a protease stability score of 1.31.

As for “SEEEKKDHRQWERTFKAFLTGDEDTVHNLADPHVKTEVGDKEYHGRENFSKLISDLGVDHLNLKEIDTVNGRIHLLSEVRFNGQITKFIIIILKVNGQWHVESMEFH”, the protease stability score amounted to 0.441.

Consider “SEEEKKLNHWLELWLRSVVTGDEEHLERLADPHVRNHVGDFESHGREEVLKLMEMLKRTLGAKHIRIEIHHVDVQGDKVRMDTRIIIDAENHHLTLKSRMHTRKIDGRWYLHSLEID”, for which the protease stability score was determined as 1.06. To “SEEEKKSKDALRFLEEVWKTGDWDDFRKMIDPHVRIEVNGRTYHGMEDAEKFARDLLKRVKNMKVSIRHIETQGDKMIVHGELNIDGVHSEIQIFTDKIDGRWLLKEVNFI” belongs 0.498; to “SEEEKLAHEYVRHIIELLETGDEQNVQDLMDPNARSVMIIDGREIYTHGRDAFSHLLKLMGFDHSRLKDIKIYDGRVHSHIEVSVNGREVEVHLIVRKVDGRWVLQETRFHLH”, 1.19. To “SEEEKLFKIMMKLLLEQTETGDEHFLKHQFDPHARLEIGEFDLHGWEFMDEHVRHWRYRDMELRRLEFQGNKIETRGLIIGEYNGRRLEISVRMIVLKIDGKWIIKHVHIH” belongs 1.42; to “SEEEKLLEELAKMFIELWLTGNEEHLMHLADPNVRFRQGDKRSHGRENLKRLLHELHEEIRIHDIRMKDVRFVNGRSIFDGHLIVQVNGVEIRLDAELTIISVNGKIKEIEIRHR”, 1.08; to “SEEEKLLTDWLRELEEVTRTGDEESIMRMVDPNDKMDVGDKHRHGMHAQEVWIEVFRRQFGIDNFEVRLIINHRRIVDGQAHVDGELQLIYNGRTTSLRIELIIDKFDGRWLISSIRYN”, 1.19. Consider “SEEEKLQREMSKRWIEEVFTGNEEVFEQLADPNTIIDINGQHLHGMETFSKWSREHIKKLGWTQFDIKMRDSKVIGNKAKLDLELHVNGKVVKVEVNLEVIDGRIKKIEERHH”, for which the protease stability score is -0.143.

As for “SEEEKLRKSLVELILHALHTGDWERLTRLLDPHVRWDQGDKVFHGREDFKRAWTELGVDHFQLRHIEMQGDKLHIKGEMHVNGRTIHVDLDIEIINGRIEHHRVDTK”, the protease stability score turned out to be 1.35. To “SEEEKLSRELSKLILHYLHTGDWDQITELADPNVRIHDTINGRDNDNHGWEMLIALMEQLGVDVRRFHHIRVIGDKVHMEVELNFNGRTVHAEWTFKVVDGRMKSIEIRTK” belongs 1.34. For the sequence “SEEEKLSRELVNEFLRLWKTGDWRRFHELADPDAKQQYNVNGQNFDYHGRDEVTDAVREFLNRLGVDHFHVHDSRIIGEKKEIDGHLNFNGRTHHIEMVVVVINGRVHKIEFHVR”, the protease stability score came to 0.28.
